Experimental data published in paper PMC4975667.

Molecular target: Human full-length BAX (1–192) wild type, recombinant (human) (UniProt Q07812)

Kd: 32 µM
Substance: Human full-length BAX (1–192) wild type, recombinant (from UniProt Q07812 1-192) (natural protein)
